# Data published in the nanobody polyreactivity screen of Harvey et al. (2022).
# Test: yeast display, Sf9 membrane polyspecificity reagent, FACS + sequencing; frameworks hold sequencing errors
# Procedure, shortened: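 Nanobodies came from a synthetic yeast display library in Saccharomyces cerevisiae BJ5465, induced with galactose for 36–48 hours and stained for 1 hour at 4 °C with 10% biotinylated, detergent-solubilized Sf9 membrane reagent. Cells were enriched on streptavidin microbeads and then FACS-sorted, with low and high (top ~1%) gates set on anti-HA fluorescence for expression and streptavidin fluorescence for reagent binding. Each polyreactivity label reflects the gate a clone came from. Genes were amplified by colony PCR, sequenced by MiSeq 2 × 250 and filtered by CDR length.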
row,Sequence,polyreactivity (PSR sort gate)
1,QVQHVESGGGLVQAGCSLRLSCAASGSIFVIYAMGWYRQAPGKERELVAAIRSTGSSNYADSVKGRFTISRDNAKNTVYLQMNSLKPEDTAVYYCAAYRRRTYAVNIEGGYWGQGTQVTVSS,high polyreactivity
2,QVQHVESGGGLVQAGGGLRISCAASGSIFHVNAMGWSRLAPGKERELVAGISDGGSTYYADSVKGRFTFSRDTAKHTVYLQLNSLKPEDTAVYYSGAECEQWYSYVLSYDWEYDYWGQGTQVTVSS,low polyreactivity
3,QVQHVESGGGLVQAGGRLRLSCAASGSIFYSNAIGWYRQAPGKEWELVATITWSGGRTYYADSVKGRFTISRDNAKNTVYLQMNSLKPEDTAVYYCAAVSIYWGQGTQVTVSS,low polyreactivity
4,QVQHVESGGGLVQAGGSHRLSCAASGRIFTQNSMGWYRQAPGKERELVAAINATDGSTYADSVKGRFTISRDNAKNTVYLQMKSLKREDTSVYYCYFTGGPYDFTRWSEFDHWGQGTQVTVSS,low polyreactivity
5,QVQHVESGGGLVQAGGSHRLSCAASGSTFGSNDMRWYRQSPGKERQLVAAIRGIVGSTYYADSVKGRFTISRDHAKNTVYLQMNSLKPEDTAVYYCNKAEVSTYYQSSSTYGGYDYWGQGTQVTVSS,low polyreactivity
6,QVQHVESGGGLVQAGGSIRLSGAASGRIILGYDMGWYRQPPGKDRELVAAINSVASTNYADSVKGRFTISRDNAKNTVYLQMNSLKPEDTAVYYCAAVYFLVEADLPAYDYWGQGTQVTVSS,low polyreactivity
7,QVQHVESGGGLVQAGGSLRISCAASGSILDGYAMGWYRQAPGKEREFVAAITWSGGRTYYADSVKGRFTISRDNAMNTVYLQMNSLKPEDTAVYYCIAVTGSWRYDFWGQGSQVTVSS,high polyreactivity
8,QVQHVESGGGLVQAGGSLRISSAASGYIFDKYAMGRYRQAPGKERELVAAITYSGGSTYYADSVKGRFTISRDNAKNTVYLQMNSLIAEDTAVNYCAPEVRRSTLEFGYWRQGTQVTVSS,high polyreactivity
9,QVQHVESGGGLVQAGGSLRLICAASGLTFPYYAMGWYRQDAGKVSELVAAITWSGGTTDYADSVKGRFTISRDNAKNTVYFKMITLKPEDTAVYFCAARVLWKGYYWGQGTQVTVSS,low polyreactivity
10,QVQHVESGGGLVQAGGSLRLICAASGSTFGNYAMGWYRQAPGKERELVAAISTSGGSTYYADSVKGRFTISRDNAKNTVYLQMNSLKPEDTAVYYCANRLVRGRSRAVSDYYWGQGTQVTVSS,high polyreactivity
11,QVQHVESGGGLVQAGGSLRLSCAASFYVYAMGWYRQAPGKERELVAAITYSGGGTYYADSVKGRFTISRDNAKKTVYLQMYSLKPEDTAVYYCNARATAYGWRGYAGFEFDYWGQGTQVTVSS,low polyreactivity
12,QVQHVESGGGLVQAGGSLRLSCAASGFIFDCNTMGWYRQAPGKERELVATIDFSGTSTYYADSVKGRFTISRDNAKNTVYFQMNSLKPEDTAVYYCNAVRSGWGYFFCLNYWGQGTQVTVSS,low polyreactivity
13,QVQHVESGGGLVQAGGSLRLSCAASGFIFLYYAMGWYRQAHGQERELVAAISRSGGRTYYADSVKGRFTISRDTAKNTVYLQMNSLKPEDTAVYYCAADRLGSISGYDYWGQGTQVTVSS,high polyreactivity
14,QVQHVESGGGLVQAGGSLRLSCAASGFIFTANAMGWYRQAPGKERELVAGIRSGSSTYYADSVKGRFTISRDNAKNTVYLQLNSLKPEDTAVYYCNAEKFNFIYAYEYWGKGTQVTVSS,low polyreactivity
15,QVQHVESGGGLVQAGGSLRLSCAASGFIFTPYAMGWYRQAPGKEREFVASITWSGGSTNYADSVKGRFTISRDNAKNTVYLQMNSLKPEDTAVYYCNADTWSPNDYWGLGTQVTVSS,low polyreactivity
16,QVQHVESGGGLVQAGGSLRLSCAASGFIFWYYAMGLYRQAPGKERELVADISSGGSTNYADSVKGRFTISRDNAKNTVYLQMNSLKPDDTAVYYCAADTFRRDDYWGQGTQVTVSS,low polyreactivity
17,QVQHVESGGGLVQAGGSLRLSCAASGFTFVYYVMGWYRQAPGKERELVAAINAGGGSTYYADSVKGRFTISRDNAKNTVYLQMNSLKPEDTAVYYCNARVRVRLGRNWSSYYYWGQGTQVTVSS,high polyreactivity
18,QVQHVESGGGLVQAGGSLRLSCAASGFTFYGNSMGWYRPAPGKERELVAGISWRGGSTYYADSVKGRFTISRDNAKNTVYLQMNSLKPEDTAVYYCAAYLWTNYYLWEYDYWGQGTQVTVSS,high polyreactivity
19,QVQHVESGGGLVQAGGSLRLSCAASGFTYVVYDMGWYRPAPGKERELVAVITNSGGSTYYADSEKGRFTISRDNAKNTVYLQMNSLKPEDTAVYYCNTENFYGSDIFDSWGQGTQVTVSS,low polyreactivity
20,QVQHVESGGGLVQAGGSLRLSCAASGGTFGSNTMGWYRQARGKERELVAAITSGVSTYYADSVKGRFTISRDNAKNTVYLQMNSLKPEDTAVFYCAADTTQVQGVEGDYWGQGTQVTVSS,low polyreactivity
21,QVQHVESGGGLVQAGGSLRLSCAASGIIFRENALGWDRQAPGKERELVAGISSGGNTNYADSGKGRFTISRDNAKNPVYLQMNSLNPEDTAVYYCNTDWYLPRYVLLGYFSGTEDYWGQGTQVTLSS,low polyreactivity
22,QVQHVESGGGLVQAGGSLRLSCAASGIIFSYNAMGWYRQAPGKERELVAAISSGGRTYYADSVKGRFTISRDNAKNTVYLQMNSLKPEDTAVYYCATTSPHRLYGYYYDYWGQGSQVTVSS,high polyreactivity

row,Sequence,polyreactivity (PSR sort gate)
1,QVQHVESGGGLVQAGGSLRLSCAASGITFSFYAMGWYRQAPGKERELVAAINGRGGRTYYADSVKGRFTISRDNAKNTVYLQMNSLKPEDTAVYYCAAVVWSTDYDYWGQGTQVTVSS,low polyreactivity
2,QVQHVESGGGLVQAGGSLRLSCAASGLIFYYYDMGWYRQPPGKERELVAAISYNGGTTYYSDSVKGRFTISRDNAKNTVYLQMNSLKPEDTAVYYCASEQLVSGYDYWGQGTQVTVSS,low polyreactivity
3,QVQHVESGGGLVQAGGSLRLSCAASGLIYSYYTMGWYRQAPGKERDLVAAITGSGGTTYYADSVKGRFTISRDNAKNTVYIQMNSLKPEDTAVYYCATPPPEVWQRWYREYDYWGQGTQVTVSS,low polyreactivity
4,QVQHVESGGGLVQAGGSLRLSCAASGLTFYDYAMGWYRQAPGKERELVADIDFNGGSTSYADSVKGRFTISRDNAKNTVYLQMNSLKPEDTAVYYCAARIHGSWSFDYWGQGTQVTVSS,low polyreactivity
5,QVQHVESGGGLVQAGGSLRLSCAASGNIFYTNAMGWYRQATGKERELVAAISGSGGRTYYADSVKGRFTISRDNAKNTVYLQMNSLKPEDTAVYYCNAVRRDYYDRTYGYWGQGTQVTVSS,low polyreactivity
6,QVQHVESGGGLVQAGGSLRLSCAASGNTFLRYAMGWYIKAPGKERELVAAISRSGGSTYYADSVKGRFTISRDTAKNTVYLQMNSLKPEDTAVYYCAARRSSQPDKGYYYWGQGTQVTVSS,high polyreactivity
7,QVQHVESGGGLVQAGGSLRLSCAASGRIFALYAMGWYRQAPGKERELVAAITSGSTYYADSVKGRFTISRDNAKNTVYLQMNSLKPEDTAVYYCAADLSYWRGGHSRNYWGQGTQVTVSS,low polyreactivity
8,QVQHVESGGGLVQAGGSLRLSCAASGRIFGYYTMGWYRQAPGKERELVATIDWSGDSTYYADSVKGRFTISRDNAKNTVYLQMNSLKPEDTAVYYCAKRYYLYHYDSWGQGTQVTVSS,low polyreactivity
9,QVQHVESGGGLVQAGGSLRLSCAASGRIFHYYAMGWYRQAPGKERELVAAITFRGGNTYADSVKGRFTISRDNAKNTVYLQMNSLKPEDTAFYYCADSRLSGYYSRYGYWGQGTQVTVSS,high polyreactivity
10,QVQHVESGGGLVQAGGSLRLSCAASGRIFHYYAMGWYRQAPGKERELVATISRRGGTTYYADSVKGRFTISRDNAKNTVYLQMNSLKPEDTAVYYCAAKYFGTRYDYWGQGTQVTVSS,high polyreactivity
11,QVQHVESGGGLVQAGGSLRLSCAASGRIFVRNAMGWYIQAPGKERELVAAITSGASTYYADSVKGRFTISRDNAKYTVYFQMYSVKPEDTAVSYCAAQAVIASWWTVDYYYWGQGTQVTVSS,high polyreactivity
12,QVQHVESGGGLVQAGGSLRLSCAASGRIFYFNAMGWSSQAPGKERELVAAISGSGGDTYYADSVKGRFTISRDNAKNTVYLQMNSLKPEDTAVYYCAAEVYPWGQGTQVTVAS,low polyreactivity
13,QVQHVESGGGLVQAGGSLRLSCAASGRIFYGYAMGWYRQAPGKERELVAAISSSGGSTYYADSVKGRFTISRDIAKNTVYLQMNSLKPEDTAVYYCNAQRYRPGYWYDYWGQGTQVTVSS,high polyreactivity
14,QVQHVESGGGLVQAGGSLRLSCAASGRIFYSNTMGWYRQAPGKERELVAAITWRGGRTHYADSVKGRFTISRDNAKNTVYLQMNSLKPEDTAVYYCAARYIPIQYPSYRTWGGYSWGQGTQVTVSS,high polyreactivity
15,QVQHVESGGGLVQAGGSLRLSCAASGRILIRNAMGWYRQAPGKERELVAAINRGGGSTYYADSVKGRFTISRDNAKNTVYLQMNSLKPEDTAVYYCAADRKAGYSRVDGDYWGQGTQVTVSS,low polyreactivity
16,QVQHVESGGGLVQAGGSLRLSCAASGRILVSYAMGWYRQAPGKERELVAAISRSGGSTYYADSVKGRFTISRDNAKNTVYLQMNCLKPEDTAVYYCATGLYIQSTYHRYERYNYWGQGTQVTVSS,high polyreactivity
17,QVQHVESGGGLVQAGGSLRLSCAASGRIYAMGWYRQAPGKERELVARITKSGTSTYYADSVKGRFTISRDNAKNTVYLQMNSLKPEDTAVYYCNARYWGYWGDHYDYWGQGTQLTVSS,high polyreactivity
18,QVQHVESGGGLVQAGGSLRLSCAASGRTFGRNAMGWYRQAPGKESEFVASINQRGGCTYYADSVKGRFTISRDIAKNTVYLQMNSLKPEDTAVYYCAKYVYVGYVRQVPYFRYDYWGQGTQVTVSS,high polyreactivity
19,QVQHVESGGGLVQAGGSLRLSCAASGRTFIINTMGWYRQAPGKERELVAAISKFGATTNYADSVKGRFTISRDNAKNTVYLQMNSLKPEDTAVYYCNARYSGYLRLDYWGQGTQVTVSS,low polyreactivity
20,QVQHVESGGGLVQAGGSLRLSCAASGRTFNAYTMGWYRQAPGKERELVAAITSSGGNTYYADSVKGRFTISRDNAKNSVYLQMNSLKPEDTAVYYCNTVYLYGTHDYWGQGTQVTGSS,low polyreactivity
21,QVQHVESGGGLVQAGGSLRLSCAASGRTFNFNTMGWYRQAPGKERELVASITSGGSTNYADSVKGRFTISRDKAKNTVYLQMNSLKPVDTAVYYCATRTTTFWFDYWVQGTQVTVSS,low polyreactivity
